# Measurements taken from paper PMC8247599.
# Tests used:
# [1] = target: Khc-FL (Drosophila melanogaster, UniProt P17210 1-975); assay: EMSA
# [2] = target: Khc 855-941 (Drosophila melanogaster, UniProt P17210 855-941); assay: EMSA
# Khc 855-941, sequence (P17210 855-941): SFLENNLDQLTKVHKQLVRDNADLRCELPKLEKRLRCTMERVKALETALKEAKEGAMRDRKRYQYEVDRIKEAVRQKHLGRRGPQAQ
# Khc-FL, sequence (P17210 whole entry): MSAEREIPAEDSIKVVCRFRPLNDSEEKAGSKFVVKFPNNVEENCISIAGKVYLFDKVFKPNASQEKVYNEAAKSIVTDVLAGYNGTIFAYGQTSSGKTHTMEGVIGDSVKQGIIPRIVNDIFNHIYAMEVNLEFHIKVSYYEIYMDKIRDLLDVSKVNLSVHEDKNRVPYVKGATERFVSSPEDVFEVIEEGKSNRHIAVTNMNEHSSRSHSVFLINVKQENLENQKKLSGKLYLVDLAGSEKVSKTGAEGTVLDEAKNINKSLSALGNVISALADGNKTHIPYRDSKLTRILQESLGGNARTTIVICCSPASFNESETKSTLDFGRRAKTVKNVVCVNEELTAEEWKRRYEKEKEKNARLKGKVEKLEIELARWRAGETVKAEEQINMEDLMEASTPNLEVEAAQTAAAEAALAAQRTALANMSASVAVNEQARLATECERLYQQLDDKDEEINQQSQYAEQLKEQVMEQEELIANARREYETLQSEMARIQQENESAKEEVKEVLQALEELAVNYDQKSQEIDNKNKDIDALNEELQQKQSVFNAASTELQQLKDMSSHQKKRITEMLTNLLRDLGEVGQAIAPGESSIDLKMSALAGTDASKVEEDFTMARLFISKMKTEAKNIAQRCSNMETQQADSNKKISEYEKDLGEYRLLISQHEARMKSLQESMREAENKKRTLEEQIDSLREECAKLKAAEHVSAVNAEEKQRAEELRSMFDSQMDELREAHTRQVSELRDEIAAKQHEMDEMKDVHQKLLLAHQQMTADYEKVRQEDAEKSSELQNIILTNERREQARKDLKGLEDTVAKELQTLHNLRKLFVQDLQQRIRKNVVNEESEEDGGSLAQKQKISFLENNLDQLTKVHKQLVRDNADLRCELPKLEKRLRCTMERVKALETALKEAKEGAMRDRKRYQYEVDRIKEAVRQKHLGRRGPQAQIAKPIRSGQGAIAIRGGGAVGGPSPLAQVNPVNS
binder,measurement,setting,value
UUUUUUUUUUUUUUUUUUUUUUUUU (ssRNA) [oligo-(U25) RNA],binding result,[1],binds
same,binding result,[2],binds
